Data on 25 molecules can be found in patent publication US20210301025A1 (published 2021).

Experiment [1] concerns the target T1, EGFR (form used in the assay not stated) (human, UniProt P00533 25-645, limits assumed). In words: ELISA, NEM conjugate, 100 nM. In general terms: In an ELISA, binding on a coated surface is turned into a signal by an enzyme label.
The target of experiment [2] is T1, EGFR (form used in the assay not stated). The experiment in a line: ELISA, NEM conjugate, 500 nM.
Experiment [3] shares this target. In words: ELISA, NEM conjugate, 10 nM.

B1: P54AR4-83v2 A3C, NEM conjugate (designed binder, not shown: small tags and cut ends)
chain: LPCPKNLVVSEVTEDSARLSWDDPWAFYESFLIQYQESEKVGEAIVLTVPGSERSYDLTGLKPGTEYTVSIYGVHNVYKDTNMRGLPLSAIFTT
modifications: N-ethyl maleimide (NEM) on Cys 3
In the case of B1, the “binding relative to P54AR4-83v2 parent” value in experiment [1] was 0.88 ratio; in experiment [2], 0.82 ratio; in experiment [3], 0.34 ratio.

B2: P54AR4-83v2 E39C, NEM conjugate (designed binder, not shown: small tags and cut ends)
chain: LPAPKNLVVSEVTEDSARLSWDDPWAFYESFLIQYQESCKVGEAIVLTVPGSERSYDLTGLKPGTEYTVSIYGVHNVYKDTNMRGLPLSAIFTT
modifications: N-ethyl maleimide (NEM) on Cys 39
Take B2: the “binding relative to P54AR4-83v2 parent” value turned out to be 1 ratio in experiment [1], 0.9 ratio in experiment [2] and 0.9 ratio in experiment [3].

B3: P54AR4-83v2 F31C, NEM conjugate (designed binder, not shown: small tags and cut ends)
chain: LPAPKNLVVSEVTEDSARLSWDDPWAFYESCLIQYQESEKVGEAIVLTVPGSERSYDLTGLKPGTEYTVSIYGVHNVYKDTNMRGLPLSAIFTT
modifications: N-ethyl maleimide (NEM) on Cys 31
As to B3, the entries for the “binding relative to P54AR4-83v2 parent” value in experiment [1], in experiment [2] and in experiment [3] were 0.34 ratio, 0.62 ratio and 0.04 ratio, respectively.

B4: P54AR4-83v2 E53C, NEM conjugate (designed binder, not shown: small tags and cut ends)
chain: LPAPKNLVVSEVTEDSARLSWDDPWAFYESFLIQYQESEKVGEAIVLTVPGSCRSYDLTGLKPGTEYTVSIYGVHNVYKDTNMRGLPLSAIFTT
modifications: N-ethyl maleimide (NEM) on Cys 53
On to B4, for which the “binding relative to P54AR4-83v2 parent” value in experiment [1] is 1.02 ratio; in experiment [2] it was 0.91 ratio; in experiment [3], 0.91 ratio.

B5: P54AR4-83v2 K5C, NEM conjugate (designed binder, not shown: small tags and cut ends)
chain: LPAPCNLVVSEVTEDSARLSWDDPWAFYESFLIQYQESEKVGEAIVLTVPGSERSYDLTGLKPGTEYTVSIYGVHNVYKDTNMRGLPLSAIFTT
modifications: N-ethyl maleimide (NEM) on Cys 5
notes: also called KSC
With B5, the “binding relative to P54AR4-83v2 parent” value stood at 1.06 ratio in experiment [1], 0.92 ratio in experiment [2] and 0.61 ratio in experiment [3].

B6: P54AR4-83v2 D23C, NEM conjugate (designed binder, not shown: small tags and cut ends)
chain: LPAPKNLVVSEVTEDSARLSWDCPWAFYESFLIQYQESEKVGEAIVLTVPGSERSYDLTGLKPGTEYTVSIYGVHNVYKDTNMRGLPLSAIFTT
modifications: N-ethyl maleimide (NEM) on Cys 23
For B6, the “binding relative to P54AR4-83v2 parent” value in experiment [1] came to 0.2 ratio; in experiment [2] it was 0.4 ratio; in experiment [3] it was 0.02 ratio.

B7: P54AR4-83v2 G51C, NEM conjugate (designed binder, not shown: small tags and cut ends)
chain: LPAPKNLVVSEVTEDSARLSWDDPWAFYESFLIQYQESEKVGEAIVLTVPCSERSYDLTGLKPGTEYTVSIYGVHNVYKDTNMRGLPLSAIFTT
modifications: N-ethyl maleimide (NEM) on Cys 51
For the molecule B7, the entries for the “binding relative to P54AR4-83v2 parent” value in experiment [1], in experiment [2] and in experiment [3] were 1.03 ratio, 0.92 ratio and 0.88 ratio, respectively.

B8: P54AR4-83v2 G64C, NEM conjugate (designed binder, not shown: small tags and cut ends)
chain: LPAPKNLVVSEVTEDSARLSWDDPWAFYESFLIQYQESEKVGEAIVLTVPGSERSYDLTGLKPCTEYTVSIYGVHNVYKDTNMRGLPLSAIFTT
modifications: N-ethyl maleimide (NEM) on Cys 64
On to B8, for which the “binding relative to P54AR4-83v2 parent” value in experiment [1] was determined as 1.42 ratio; in experiment [2] it was 1.36 ratio; in experiment [3], 1.28 ratio.

B9: P54AR4-83v2 E43C, NEM conjugate (designed binder, not shown: small tags and cut ends)
chain: LPAPKNLVVSEVTEDSARLSWDDPWAFYESFLIQYQESEKVGCAIVLTVPGSERSYDLTGLKPGTEYTVSIYGVHNVYKDTNMRGLPLSAIFTT
modifications: N-ethyl maleimide (NEM) on Cys 43
Turning to B9, the “binding relative to P54AR4-83v2 parent” value in experiment [1] came out at 1.04 ratio; in experiment [2], 0.92 ratio; in experiment [3] it was 0.68 ratio.

B10: P54AR4-83v2 D22C, NEM conjugate (designed binder, not shown: small tags and cut ends)
chain: LPAPKNLVVSEVTEDSARLSWCDPWAFYESFLIQYQESEKVGEAIVLTVPGSERSYDLTGLKPGTEYTVSIYGVHNVYKDTNMRGLPLSAIFTT
modifications: N-ethyl maleimide (NEM) on Cys 22
Take B10: the “binding relative to P54AR4-83v2 parent” value in experiment [1] turned out to be 1.02 ratio; in experiment [2] it was 0.9 ratio; in experiment [3] it was 0.84 ratio.

B11: P54AR4-83v2 I45C, NEM conjugate (designed binder, not shown: small tags and cut ends)
chain: LPAPKNLVVSEVTEDSARLSWDDPWAFYESFLIQYQESEKVGEACVLTVPGSERSYDLTGLKPGTEYTVSIYGVHNVYKDTNMRGLPLSAIFTT
modifications: N-ethyl maleimide (NEM) on Cys 45
For the molecule B11, the “binding relative to P54AR4-83v2 parent” value in experiment [1] came to 1.04 ratio; in experiment [2] it was 0.93 ratio; in experiment [3], 0.91 ratio.

B12: P54AR4-83v2 I91C, NEM conjugate (designed binder, not shown: small tags and cut ends)
chain: LPAPKNLVVSEVTEDSARLSWDDPWAFYESFLIQYQESEKVGEAIVLTVPGSERSYDLTGLKPGTEYTVSIYGVHNVYKDTNMRGLPLSACFTT
modifications: N-ethyl maleimide (NEM) on Cys 91
As to B12, the figures for the “binding relative to P54AR4-83v2 parent” value in experiment [1], in experiment [2] and in experiment [3] were 1.01 ratio, 1 ratio and 0.9 ratio, respectively.

B13: P54AR4-83v2 D15C, NEM conjugate (designed binder, not shown: small tags and cut ends)
chain: LPAPKNLVVSEVTECSARLSWDDPWAFYESFLIQYQESEKVGEAIVLTVPGSERSYDLTGLKPGTEYTVSIYGVHNVYKDTNMRGLPLSAIFTT
modifications: N-ethyl maleimide (NEM) on Cys 15
With B13, the “binding relative to P54AR4-83v2 parent” value in experiment [1] stood at 1.09 ratio; in experiment [2], 0.97 ratio; in experiment [3], 0.98 ratio.

B14: P54AR4-83v2 E29C, NEM conjugate (designed binder, not shown: small tags and cut ends)
chain: LPAPKNLVVSEVTEDSARLSWDDPWAFYCSFLIQYQESEKVGEAIVLTVPGSERSYDLTGLKPGTEYTVSIYGVHNVYKDTNMRGLPLSAIFTT
modifications: N-ethyl maleimide (NEM) on Cys 29
For the molecule B14, the “binding relative to P54AR4-83v2 parent” value in experiment [1] was 1.07 ratio; in experiment [2] it was 0.93 ratio; in experiment [3], 0.89 ratio.

B15: P54AR4-83v2 G73C, NEM conjugate (designed binder, not shown: small tags and cut ends)
chain: LPAPKNLVVSEVTEDSARLSWDDPWAFYESFLIQYQESEKVGEAIVLTVPGSERSYDLTGLKPGTEYTVSIYCVHNVYKDTNMRGLPLSAIFTT
modifications: N-ethyl maleimide (NEM) on Cys 73
As for B15, the “binding relative to P54AR4-83v2 parent” value in experiment [1] is 0.02 ratio; in experiment [2], 0.21 ratio; in experiment [3], 0 ratio.

B16: P54AR4-83v2 A90C, NEM conjugate (designed binder, not shown: small tags and cut ends)
chain: LPAPKNLVVSEVTEDSARLSWDDPWAFYESFLIQYQESEKVGEAIVLTVPGSERSYDLTGLKPGTEYTVSIYGVHNVYKDTNMRGLPLSCIFTT
modifications: N-ethyl maleimide (NEM) on Cys 90
Regarding B16, the entries for the “binding relative to P54AR4-83v2 parent” value in experiment [1], in experiment [2] and in experiment [3] were 1.05 ratio, 1.01 ratio and 0.94 ratio, respectively.

B17: P54AR4-83v2 D80C, NEM conjugate (designed binder, not shown: small tags and cut ends)
chain: LPAPKNLVVSEVTEDSARLSWDDPWAFYESFLIQYQESEKVGEAIVLTVPGSERSYDLTGLKPGTEYTVSIYGVHNVYKCTNMRGLPLSAIFTT
modifications: N-ethyl maleimide (NEM) on Cys 80
Consider B17, for which the “binding relative to P54AR4-83v2 parent” value in experiment [1] stood at 0.97 ratio; in experiment [2] it was 0.91 ratio; in experiment [3], 0.7 ratio.

B18: P54AR4-83v2 E14C, NEM conjugate (designed binder, not shown: small tags and cut ends)
chain: LPAPKNLVVSEVTCDSARLSWDDPWAFYESFLIQYQESEKVGEAIVLTVPGSERSYDLTGLKPGTEYTVSIYGVHNVYKDTNMRGLPLSAIFTT
modifications: N-ethyl maleimide (NEM) on Cys 14
B18: the “binding relative to P54AR4-83v2 parent” value in experiment [1] was 1.27 ratio; in experiment [2], 1.15 ratio; in experiment [3] it was 1.11 ratio.

B19: P54AR4-83v2 A26C, NEM conjugate (designed binder, not shown: small tags and cut ends)
chain: LPAPKNLVVSEVTEDSARLSWDDPWCFYESFLIQYQESEKVGEAIVLTVPGSERSYDLTGLKPGTEYTVSIYGVHNVYKDTNMRGLPLSAIFTT
modifications: N-ethyl maleimide (NEM) on Cys 26
B19: the “binding relative to P54AR4-83v2 parent” value in experiment [1] stood at 1.06 ratio; in experiment [2], 0.95 ratio; in experiment [3] it was 0.95 ratio.

B20: P54AR4-83v2 H75C, NEM conjugate (designed binder, not shown: small tags and cut ends)
chain: LPAPKNLVVSEVTEDSARLSWDDPWAFYESFLIQYQESEKVGEAIVLTVPGSERSYDLTGLKPGTEYTVSIYGVCNVYKDTNMRGLPLSAIFTT
modifications: N-ethyl maleimide (NEM) on Cys 75
Take B20: the “binding relative to P54AR4-83v2 parent” value came out at 0.19 ratio in experiment [1], 0.25 ratio in experiment [2] and 0.07 ratio in experiment [3].

B21: P54AR4-83v2 E11C, NEM conjugate (designed binder, not shown: small tags and cut ends)
chain: LPAPKNLVVSCVTEDSARLSWDDPWAFYESFLIQYQESEKVGEAIVLTVPGSERSYDLTGLKPGTEYTVSIYGVHNVYKDTNMRGLPLSAIFTT
modifications: N-ethyl maleimide (NEM) on Cys 11
Take B21: the “binding relative to P54AR4-83v2 parent” value in experiment [1] was determined as 1.08 ratio; in experiment [2], 0.95 ratio; in experiment [3], 0.9 ratio.

B22: P54AR4-83v2 G42C, NEM conjugate (designed binder, not shown: small tags and cut ends)
chain: LPAPKNLVVSEVTEDSARLSWDDPWAFYESFLIQYQESEKVCEAIVLTVPGSERSYDLTGLKPGTEYTVSIYGVHNVYKDTNMRGLPLSAIFTT
modifications: N-ethyl maleimide (NEM) on Cys 42
B22: the “binding relative to P54AR4-83v2 parent” value in experiment [1] was 0.99 ratio; in experiment [2], 0.9 ratio; in experiment [3] it was 0.84 ratio.

B23: P54AR4-83v2 G60C, NEM conjugate (designed binder, not shown: small tags and cut ends)
chain: LPAPKNLVVSEVTEDSARLSWDDPWAFYESFLIQYQESEKVGEAIVLTVPGSERSYDLTCLKPGTEYTVSIYGVHNVYKDTNMRGLPLSAIFTT
modifications: N-ethyl maleimide (NEM) on Cys 60
B23: the “binding relative to P54AR4-83v2 parent” value is 1.02 ratio in experiment [1], 0.93 ratio in experiment [2] and 0.86 ratio in experiment [3].

B24: P54AR4-83v2 G85C, NEM conjugate (designed binder, not shown: small tags and cut ends)
chain: LPAPKNLVVSEVTEDSARLSWDDPWAFYESFLIQYQESEKVGEAIVLTVPGSERSYDLTGLKPGTEYTVSIYGVHNVYKDTNMRCLPLSAIFTT
modifications: N-ethyl maleimide (NEM) on Cys 85
B24: the “binding relative to P54AR4-83v2 parent” value in experiment [1] amounted to 0.02 ratio; in experiment [2], 0.29 ratio; in experiment [3] it was 0.19 ratio.

B25: P54AR4-83v2 F27C, NEM conjugate (designed binder, not shown: small tags and cut ends)
chain: LPAPKNLVVSEVTEDSARLSWDDPWACYESFLIQYQESEKVGEAIVLTVPGSERSYDLTGLKPGTEYTVSIYGVHNVYKDTNMRGLPLSAIFTT
modifications: N-ethyl maleimide (NEM) on Cys 27
As for B25, the “binding relative to P54AR4-83v2 parent” value in experiment [1] came out at 0.07 ratio; in experiment [2], 0.23 ratio; in experiment [3] it was 0 ratio.
